B1: GST-Vta1^ΔN68 (domain or fragment)
chain: AEDSDKSLHVMNTLIHDQEKAKIYMLNFTMSLYNEKLKQLKDGPWDVMLKRSLWCCIDLFSCILHLWKENISETSTNSLQKRIKYCKIYLSKLAKGEIGSSDEKTLDYADFADDSEEIKDEDVDHQTSDLENNNNDKVEGLAPKDQTTSYEPVDEVPEFIDDADSVNEEEQTVDKNEDAITKDEQQVVKKEVDLTRPSAPSEPAAAEHKSYTKDELTKIMDRASKIEQIQKLAKYAISALNYEDLPTAKDELTKALDLLNSI
B2: GST-Vta1 (natural protein)
chain: MASNAARVVATAKDFDKVGLGIIGYYLQLYAVELILSEEDRSQEMTALATELLDTIEAFKKEIGGESEAEDSDKSLHVMNTLIHDQEKAKIYMLNFTMSLYNEKLKQLKDGPWDVMLKRSLWCCIDLFSCILHLWKENISETSTNSLQKRIKYCKIYLSKLAKGEIGSSDEKTLDYADFADDSEEIKDEDVDHQTSDLENNNNDKVEGLAPKDQTTSYEPVDEVPEFIDDADSVNEEEQTVDKNEDAITKDEQQVVKKEVDLTRPSAPSEPAAAEHKSYTKDELTKIMDRASKIEQIQKLAKYAISALNYEDLPTAKDELTKALDLLNSI
B3: Vta1 (purified recombinant, bacterially expressed) (natural protein)
chain: B2 chain
B4: GST-Vta1^K322A (natural protein)
chain: B2 chain with K322A
B5: His6-Vta1 (natural protein)
chain: B2 chain
B6: GST-Vta1^S306A (natural protein)
chain: B2 chain with S306A
B7: GST-SBP1 (natural protein)
chain: MAALAPLPPLPAQFKSIQHHLRTAQEHDKRDPVVAYYCRLYAMQTGMKIDSKTPECRKFLSKLMDQLEALKKQLGDNEAITQEIVGCAHLENYALKMFLYADNEDRAGRFHKNMIKSFYTASLLIDVITVFGELTDENVKHRKYARWKATYIHNCLKNGETPQAGPVGIEEDNDIEENEDAGAASLPTQPTQPSSSSTYDPSNMPSGNYTGIQIPPGAHAPANTPAEVPHSTGVASNTIQPTPQTIPAIDPALFNTISQGDVRLTPEDFARAQKYCKYAGSALQYEDVSTAVQNLQKALKLLTTGRE
B8: GST-Vta1^Δ37–68 (natural protein)
chain: MASNAARVVATAKDFDKVGLGIIGYYLQLYAVELILAEDSDKSLHVMNTLIHDQEKAKIYMLNFTMSLYNEKLKQLKDGPWDVMLKRSLWCCIDLFSCILHLWKENISETSTNSLQKRIKYCKIYLSKLAKGEIGSSDEKTLDYADFADDSEEIKDEDVDHQTSDLENNNNDKVEGLAPKDQTTSYEPVDEVPEFIDDADSVNEEEQTVDKNEDAITKDEQQVVKKEVDLTRPSAPSEPAAAEHKSYTKDELTKIMDRASKIEQIQKLAKYAISALNYEDLPTAKDELTKALDLLNSI
B9: Vps4 (enzyme)
chain: MSTGDFLTKGIELVQKAIDLDTATQYEEAYTAYYNGLDYLMLALKYEKNPKSKDLIRAKFTEYLNRAEQLKKHLESEEANAAKKSPSAGSGSNGGNKKISQEEGEDNGGEDNKKLRGALSSAILSEKPNVKWEDVAGLEGAKEALKEAVILPVKFPHLFKGNRKPTSGILLYGPPGTGKSYLAKAVATEANSTFFSVSSSDLVSKWMGESEKLVKQLFAMARENKPSIIFIDEVDALTGTRGEGESEASRRIKTELLVQMNGVGNDSQGVLVLGATNIPWQLDSAIRRRFERRIYIPLPDLAARTTMFEINVGDTPCVLTKEDYRTLGAMTEGYSGSDIAVVVKDALMQPIRKIQSATHFKDVSTEDDETRKLTPCSPGDDGAIEMSWTDIEADELKEPDLTIKDFLKAIKSTRPTVNEDDLLKQEQFTRDFGQEGN
B10: Vps4^E233Q (enzyme)
chain: B9 chain with E233Q

Numbering of substitutions follows the chain as printed. Numbers in names are those of the source.

Series [1] has as its target B10. The experiment in a line: pull-down.
For series [2], the target named is B10. The experiment in a line: SEC.
The series “AUC” concerns the molecule itself. The experiment in a line: AUC.
The target of a further series is Vps4 (yeast) (UniProt P52917).
In series [3] the target is B3. The experiment in a line: SEC.
The series “SEC” concerns the molecule itself. The experiment in a line: SEC.

The results in this text go back to article PMC2063703 (The Journal of Cell Biology, 2006).

With EDFARAQKYCKYAGSALQYEDVSTAVQNLQKALKLLTTGRE (domain or fragment) [GST-VSL^SBP1], in the series with Vps4^E233Q [1], the binding result is recorded as “binds”. The same measure, in the same setting: the value for B1 was “binds”; that for RASKIEQIQKLAKYAISALNYEDLPTAKDELTKALDLLNSI (domain or fragment) [GST-VSL^Vta1] was “binds”.

Turning to B2, the binding result with Vps4^E233Q [1] was “binds”. As for B3, in the series with Vps4^E233Q [2], the binding result is recorded as “binds”.

For the molecule B4, the binding result with Vps4^E233Q [1] was “binds”. B5: the “stoichiometry N” value in the series “AUC” is 2. Regarding B6, the binding result with Vps4^E233Q [1] is reported as “binds”. For B7, the binding result with Vps4^E233Q [1] is recorded as “binds”. On to B8, for which, in the series with Vps4^E233Q [1], the binding result is on record as “binds”. For the molecule B9, in the series with Vps4 (yeast), the Km of the Vps4 protein concentration-dependent ATPase activity, with 1 μM Vta1 was found to be 0.118 µM; the Km of the Vps4 protein concentration-dependent ATPase activity, with 6 μM Vta1 is 0.069 µM; the Km of the Vps4 protein concentration-dependent ATPase activity, without Vta1 amounted to 1.1 µM. For B10, the “stoichiometry N” value in series [3] is around 1; in “SEC”, 2.
